{"source": "patent US20020147306A1", "about": "“Peptides that modulate the interaction of B class ephrins and PDZ domains” (priority 1998, published 2002)", "assay_in_all_cases": "fluorescence polarization, 25 nM fluorescein-labelled peptide, GST fusion titrated, 22 C", "key": {"[1]": {"target": "fluorescein-labelled NIYYKV peptide"}, "[2]": {"target": "fluorescein-labelled NIYpYKV peptide"}, "[3]": {"target": "fluorescein-labelled NIpYpYKV peptide"}, "[4]": {"target": "fluorescein-labelled NIpYYKV peptide"}}, "note": "pKd: −log10 of the molar value."}
{"substance": "GST-FAP-1 PDZ3 fusion protein (from UniProt Q12923 1368-1452)", "values": [{"measurement": "pKd", "setting": "[1]", "value": 4.19}]}
{"substance": "GST-FAP-1 PDZ5 fusion protein (from UniProt P08515 1-218)", "values": [{"measurement": "pKd", "setting": "[2]", "value": 4.81}, {"measurement": "pKd", "setting": "[1]", "value": 5.00}, {"measurement": "pKd", "setting": "[3]", "value": 5.08}, {"measurement": "pKd", "setting": "[4]", "value": 5.17}]}
